# Earlier results, collected in publication PMC4031507.
# Molecular target: Cys+1 (UniProt position 252, VVKNKCLAEGT)
substance,measurement,value
RecA intein (Mtu RecA intein) with C-extein Cys+1 (Mycobacterium tuberculosis),pKa,5.8
